Patent publication US12454527B2, “Conjugate monomethyl auristatin E to obtain a composition for treatment of prostate cancer” (priority 2019, dated 2025)
Several values for one entry are separate records, joined by “and”; a condition that tells them apart may be missing. Equal entries are not always repeated. Where two headings read alike, the source gives them in different places. Starred links: 1 amine or outer side, 2 acyl side, 3 side chain; linkers in the order of their positions; H or OH if unused. Non-standard residues stand in square brackets, D forms with d. Residues, ends and D or L forms follow the SMILES beside them. ξ: configuration not given here. *: point of attachment. GluureaLys(ε-3-ClBenzyl) = O=C(O)CC[C@H](NC(=O)N[C@@H](CCCCN(Cc1cccc(Cl)c1)*)C(=O)O)C(=O)O; Dolaproine = CO[C@@H]([C@@H]1CCCN1)[C@@H](C)C(=O)O; Dil = CC[C@H](C)[C@H](NC)[C@@H](CC(=O)O)OC; X1 = O=C(CCCc1cn(CCCN[*:1])nn1)[*:2]; PABC = O=C(OCc1ccc(N[*:1])cc1)[*:2]; X2 = C[C@@H](N*)[C@@H](O)c1ccccc1; Cit = NC(=O)NCCC[C@H](N)C(=O)O; Suc = O=C(CCC(=O)[*:2])[*:1]; NMeV = CN[C@H](C(=O)O)C(C)C; ξV = CC(C)C(N)C(=O)O; Ahx = NCCCCCC(=O)O

Test: Pharmacokinetics in plasma of rabbits after a single injection; on T1/2: dose 0.81 mg/kg; on Vd: dose 0.81 mg/kg
Format: in vivo
Conditions: for level at 0.5 h: 0.50 hour
From the text: The pharmacokinetics study for the Conjugate (I) product in plasma of rabbits and rats after a single injection.
The leporids and rodents are the standard targets for preclinical studies of potential drug products as well as determining the pharmacokinetic parameters. The rabbits and rats are recommended as test systems to study pharmacokinetic properties of pharmaceutical products by the regulatory documents (FIG. 7, FIG. 8).
[…] The pharmacokinetic data, determined from this number of test animals, are sufficient to obtain the primary quantitative characteristics of test product distribution and elimination and the calculation of descriptive statistics parameters.
• 1. Conjugate (1) • 2. Solubilizer Pluronic F127—in the amount, five-fold greater than the conjugate amount by weight. • 3, Diluent—Haemodes infusion solution. • Dimethyl sulfoxide—in the amount of 5% of the prepared volume. • Rabbit experiment (see Tables 5, 6), • Rat experiment (see Tables 7, 8).

[1] = male, Soviet Chinchilla, rabbit, plasma, rabbits N=6, read-out: Concentration in blood plasma, Geometr. mean
[2] = male, Soviet Chinchilla, rabbit, plasma, rabbits N=6, read-out: Concentration in blood plasma, Mean value
[3] = male, Soviet Chinchilla, rabbit, plasma, rabbits N=6, read-out: Concentration in blood plasma, Median
[4] = male, Soviet Chinchilla, rabbit, plasma, rabbits, read-out: Concentration in blood plasma (individual animals)

Compound: CC[C@H](C)[C@@H]([C@@H](CC(=O)N1CCC[C@H]1[C@H](OC)[C@@H](C)C(=O)N[C@H](C)[C@@H](O)c1ccccc1)OC)N(C)C(=O)[C@@H](NC(=O)[C@H](C(C)C)N(C)C(=O)OCc1ccc(NC(=O)[C@H](CCCNC(N)=O)NC(=O)C(NC(=O)CCCc2cn(CCCNC(=O)[C@H](Cc3ccc(O)cc3)NC(=O)[C@H](Cc3ccccc3)NC(=O)CCC(=O)NCCCCCC(=O)N(CCCC[C@H](NC(=O)N[C@@H](CCC(=O)O)C(=O)O)C(=O)O)Cc3cccc(Cl)c3)nn2)C(C)C)cc1)C(C)C (some centres unmarked) [Conjugate (I)] ({GluureaLys(ε-3-ClBenzyl)-Ahx-Suc}-FY[X1][ξV][Cit][PABC][NMeV]V[Dil][Dolaproine]-X2)
- level at 0.08 h (male, Soviet Chinchilla, rabbit, plasma, rabbits N=6, 0.08 hour, read-out: Concentration in blood plasma, Mean value): 10500 ng/mL
- level at 0.08 h (male, Soviet Chinchilla, rabbit, plasma, rabbits N=6, 0.08 hour, read-out: Concentration in blood plasma, Median): 9600 ng/mL
- level at 0.25 h [1]: 9410 ng/mL
- level at 0.25 h [2]: 9670 ng/mL
- level at 0.25 h [3]: 9840 ng/mL
- level at 0.5 h [1]: 7410 ng/mL
- level at 0.5 h [2]: 7580 ng/mL
- level at 0.5 h [3]: 7100 ng/mL
- level at 1 h [1]: 6040 ng/mL
- level at 1 h [2]: 6160 ng/mL
- level at 1 h [3]: 5890 ng/mL
- level at 1.5 h (male, Soviet Chinchilla, rabbit, plasma, rabbits N=6, 1.50 hour, read-out: Concentration in blood plasma, Mean value): 5120 ng/mL
- level at 1.5 h (male, Soviet Chinchilla, rabbit, plasma, rabbits N=6, 1.50 hour, read-out: Concentration in blood plasma, Median): 4970 ng/mL
- level at 2 h (male, Soviet Chinchilla, rabbit, plasma, rabbits N=6, 2.00 hour, read-out: Concentration in blood plasma, Geometr. mean): 4570 ng/mL
- level at 2 h (male, Soviet Chinchilla, rabbit, plasma, rabbits N=6, 2.00 hour, read-out: Concentration in blood plasma, Mean value): 4630 ng/mL
- level at 2 h (male, Soviet Chinchilla, rabbit, plasma, rabbits N=6, 2.00 hour, read-out: Concentration in blood plasma, Median): 4510 ng/mL
- level at 3 h (male, Soviet Chinchilla, rabbit, plasma, rabbits N=6, 3.00 hour, read-out: Concentration in blood plasma, Geometr. mean): 3440 ng/mL
- level at 3 h (male, Soviet Chinchilla, rabbit, plasma, rabbits N=6, 3.00 hour, read-out: Concentration in blood plasma, Mean value): 3520 ng/mL
- level at 3 h (male, Soviet Chinchilla, rabbit, plasma, rabbits N=6, 3.00 hour, read-out: Concentration in blood plasma, Median): 3650 ng/mL
- level at 4 h [1]: 2430 ng/mL
- level at 4 h [2]: 2520 ng/mL
- level at 4 h [3]: 2540 ng/mL
- level at 6 h [1]: 1510 ng/mL
- level at 6 h [2]: 1540 ng/mL
- level at 6 h [3]: 1620 ng/mL
- level at 8 h (male, Soviet Chinchilla, rabbit, plasma, rabbits N=6, 8.00 hour, read-out: Concentration in blood plasma, Geometr. mean): 1180 ng/mL
- level at 8 h (male, Soviet Chinchilla, rabbit, plasma, rabbits N=6, 8.00 hour, read-out: Concentration in blood plasma, Mean value): 1210 ng/mL
- level at 10 h [1]: 857 ng/mL
- level at 10 h [2]: 878 ng/mL
- level at 10 h [3]: 892 ng/mL
- level at 12 h [1]: 631 ng/mL
- level at 12 h [2]: 657 ng/mL
- level at 12 h [3]: 558 ng/mL
- C0 (male, Soviet Chinchilla, rabbit, plasma, rabbits N=6, read-out: C0, Geometr. mean): 10900 ng/mL
- C0 (male, Soviet Chinchilla, rabbit, plasma, rabbits N=6, read-out: C0, Mean value): 11100 ng/mL
- clearance (male, Soviet Chinchilla, rabbit, plasma, rabbits N=6, read-out: CI, Geometr. mean (converted)): 0.389 mL/min/kg
- clearance (male, Soviet Chinchilla, rabbit, plasma, rabbits N=6, read-out: CI, Mean value (converted)): 0.394 mL/min/kg
- clearance (male, Soviet Chinchilla, rabbit, plasma, rabbits N=6, read-out: CI, Median (converted)): 0.374 mL/min/kg
- level at 0.08 h (male, Soviet Chinchilla, rabbit, plasma, rabbits, 0.08 hour, read-out: Concentration in blood plasma (individual animals)): 9580 ng/mL
- level at 0.25 h [4]: 10700 ng/mL
- level at 0.5 h [4]: 7250 ng/mL
- level at 1 h [4]: 5100 ng/mL
- level at 1.5 h (male, Soviet Chinchilla, rabbit, plasma, rabbits, 1.50 hour, read-out: Concentration in blood plasma (individual animals)): 4850 ng/mL
- level at 2 h (male, Soviet Chinchilla, rabbit, plasma, rabbits, 2.00 hour, read-out: Concentration in blood plasma (individual animals)): 3840 ng/mL
- level at 6 h [4]: 1310 ng/mL
- level at 8 h (male, Soviet Chinchilla, rabbit, plasma, rabbits, 8.00 hour, read-out: Concentration in blood plasma (individual animals)): 1360 ng/mL
- level at 10 h [4]: 859 ng/mL
- AUCt-∞/AUC0-∞, Geometr. mean (rabbits N=6): 11.364%
- AUCt-∞/AUC0-∞, Mean value (rabbits N=6): 12.690%
- AUCt-∞/AUC0-∞, Median (rabbits N=6): 13.29%
- C0, Median (rabbits N=6): 9880 ng/mL
- Kel, Geometr. mean (rabbits N=6): 0.160 h⁻¹
- Kel, Mean value (rabbits N=6): 0.170 h⁻¹
- Kel, Median (rabbits N=6): 0.153 h⁻¹
- Concentration in blood plasma, Geometr. mean (rabbits N=6, 1.50 hour): 5046 ng/mL
- Concentration in blood plasma, Median (rabbits N=6, 8.00 hour): 1195 ng/mL
- Concentration in blood plasma (individual animals) (rabbits, 0.08 hour): 9617 ng/mL
- Concentration in blood plasma (individual animals) (rabbits, 2.00 hour): 3781 ng/mL
- Concentration in blood plasma (individual animals) (rabbits, 3.00 hour): 3693 ng/mL
- AUC0-t (rabbits, individual animals): 39504 ng·h/mL and 21886 ng·h/mL and 33617 ng·h/mL and 28972 ng·h/mL and 28872 ng·h/mL
- AUC0-∞ (rabbits, individual animals): 42004 ng·h/mL and 26025 ng·h/mL and 39814 ng·h/mL and 36928 ng·h/mL and 30768 ng·h/mL
- AUCt-∞/AUC0-∞ (rabbits, individual animals): 11.01% and 5.95% and 15.90% and 15.57% and 21.54% and 6.16%
- C0 (rabbits, individual animals): 17049 ng/mL and 9815 ng/mL and 9947 ng/mL and 9624 ng/mL and 9582 ng/mL
- CI (rabbits, individual animals): 0.3827 mL/min/kg and 0.3213 mL/min/kg and 0.5187 mL/min/kg and 0.339 mL/min/kg and 0.3655 mL/min/kg and 0.4388 mL/min/kg
- Kel (rabbits, individual animals): 0.137 h⁻¹ and 0.234 h⁻¹ and 0.123 h⁻¹ and 0.168 h⁻¹ and 0.099 h⁻¹ and 0.256 h⁻¹
- MRT0-t (rabbits, individual animals): 3.14 h and 3.29 h and 3.88 h and 3.74 h and 3.46 h
- T1/2 (rabbits, individual animals): 5.06 h and 2.97 h and 5.63 h and 4.12 h and 7.01 h and 2.70 h
- Vd (rabbits, individual animals): 0.16766 L/kg and 0.08255 L/kg and 0.2526 L/kg and 0.12101 L/kg and 0.22174 L/kg and 0.1027 L/kg
